To fix the notation:
B1: VEGFR1 (mouse, endogenous in MAEC, MVEC, trigeminal ganglion neurons and mouse tissues) (receptor, UniProt P35969 23-1333, looked up)
chain: YGSGSKLKVPELSLKGTQHVMQAGQTLFLKCRGEAAHSWSLPTTVSQEDKRLSITPPSACGRDNRQFCSTLTLDTAQANHTGLYTCRYLPTSTSKKKKAESSIYIFVSDAGSPFIEMHTDIPKLVHMTEGRQLIIPCRVTSPNVTVTLKKFPFDTLTPDGQRITWDSRRGFIIANATYKEIGLLNCEATVNGHLYQTNYLTHRQTNTILDVQIRPPSPVRLLHGQTLVLNCTATTELNTRVQMSWNYPGKATKRASIRQRIDRSHSHNNVFHSVLKINNVESRDKGLYTCRVKSGSSFQSFNTSVHVYEKGFISVKHRKQPVQETTAGRRSYRLSMKVKAFPSPEIVWLKDGSPATLKSARYLVHGYSLIIKDVTTEDAGDYTILLGIKQSRLFKNLTATLIVNVKPQIYEKSVSSLPSPPLYPLGSRQVLTCTVYGIPRPTITWLWHPCHHNHSKERYDFCTENEESFILDPSSNLGNRIESISQRMTVIEGTNKTVSTLVVADSQTPGIYSCRAFNKIGTVERNIKFYVTDVPNGFHVSLEKMPAEGEDLKLSCVVNKFLYRDITWILLRTVNNRTMHHSISKQKMATTQDYSITLNLVIKNVSLEDSGTYACRARNIYTGEDILRKTEVLVRDSEAPHLLQNLSDYEVSISGSTTLDCQARGVPAPQITWFKNNHKIQQEPGIILGPGNSTLFIERVTEEDEGVYRCRATNQKGAVESAAYLTVQGTSDKSNLELITLTCTCVAATLFWLLLTLFIRKLKRSSSEVKTDYLSIIMDPDEVPLDEQCERLPYDASKWEFARERLKLGKSLGRGAFGKVVQASAFGIKKSPTCRTVAVKMLKEGATASEYKALMTELKILTHIGHHLNVVNLLGACTKQGGPLMVIVEYCKYGNLSNYLKSKRDLFCLNKDAALHMELKKESLEPGLEQGQKPRLDSVSSSSVTSSSFPEDRSVSDVEGDEDYSEISKQPLTMEDLISYSFQVARGMEFLSSRKCIHRDLAARNILLSENNVVKICDFGLARDIYKNPDYVRRGDTRLPLKWMAPESIFDKVYSTKSDVWSYGVLLWEIFSLGGSPYPGVQMDEDFCSRLKEGMRMRTPEYATPEIYQIMLDCWHKDPKERPRFAELVEKLGDLLQANVQQDGKDYIPLNAILTRNSGFTYSTPTFSEDLFKDGFADPHFHSGSSDDVRYVNAFKFMSLERIKTFEELSPNSTSMFEDYQLDTSTLLGSPLLKRFTWTETKPKASMKIDLRIASKSKEAGLSDLPRPSFCFSSCGHIRPVQDDESELGKESCCSPPPDYNSVVLYSSPPA
notes: VEGF receptor 1 (VEGFR-1, flt-1), endogenous in mouse aortic and venous endothelial cell lines, thy1-YFP mouse trigeminal ganglion neurons and mouse tissues; Endogenous protein; also called flt-1; Flt-1; source: endogenous, MAEC and MVEC lysates; endogenous, mouse tissue lysates (thoracic aorta, portal vein, dorsal root ganglia, trigeminal ganglia, cornea); endogenous, fixed MAEC, MVEC and …
B2: VEGFR2 (mouse, endogenous in MAEC, MVEC, trigeminal ganglion neurons and mouse tissues) (receptor, UniProt P35918 20-1345, looked up)
chain: ASVGLPGDFLHPPKLSTQKDILTILANTTLQITCRGQRDLDWLWPNAQRDSEERVLVTECGGGDSIFCKTLTIPRVVGNDTGAYKCSYRDVDIASTVYVYVRDYRSPFIASVSDQHGIVYITENKNKTVVIPCRGSISNLNVSLCARYPEKRFVPDGNRISWDSEIGFTLPSYMISYAGMVFCEAKINDETYQSIMYIVVVVGYRIYDVILSPPHEIELSAGEKLVLNCTARTELNVGLDFTWHSPPSKSHHKKIVNRDVKPFPGTVAKMFLSTLTIESVTKSDQGEYTCVASSGRMIKRNRTFVRVHTKPFIAFGSGMKSLVEATVGSQVRIPVKYLSYPAPDIKWYRNGRPIESNYTMIVGDELTIMEVTERDAGNYTVILTNPISMEKQSHMVSLVVNVPPQIGEKALISPMDSYQYGTMQTLTCTVYANPPLHHIQWYWQLEEACSYRPGQTSPYACKEWRHVEDFQGGNKIEVTKNQYALIEGKNKTVSTLVIQAANVSALYKCEAINKAGRGERVISFHVIRGPEITVQPAAQPTEQESVSLLCTADRNTFENLTWYKLGSQATSVHMGESLTPVCKNLDALWKLNGTMFSNSTNDILIVAFQNASLQDQGDYVCSAQDKKTKKRHCLVKQLIILERMAPMITGNLENQTTTIGETIEVTCPASGNPTPHITWFKDNETLVEDSGIVLRDGNRNLTIRRVRKEDGGLYTCQACNVLGCARAETLFIIEGAQEKTNLEVIILVGTAVIAMFFWLLLVIVLRTVKRANEGELKTGYLSIVMDPDELPLDERCERLPYDASKWEFPRDRLKLGKPLGRGAFGQVIEADAFGIDKTATCKTVAVKMLKEGATHSEHRALMSELKILIHIGHHLNVVNLLGACTKPGGPLMVIVEFCKFGNLSTYLRGKRNEFVPYKSKGARFRQGKDYVGELSVDLKRRLDSITSSQSSASSGFVEEKSLSDVEEEEASEELYKDFLTLEHLICYSFQVAKGMEFLASRKCIHRDLAARNILLSEKNVVKICDFGLARDIYKDPDYVRKGDARLPLKWMAPETIFDRVYTIQSDVWSFGVLLWEIFSLGASPYPGVKIDEEFCRRLKEGTRMRAPDYTTPEMYQTMLDCWHEDPNQRPSFSELVEHLGNLLQANAQQDGKDYIVLPMSETLSMEEDSGLSLPTSPVSCMEEEEVCDPKFHYDNTAGISHYLQNSKRKSRPVSVKTFEDIPLEEPEVKVIPDDSQTDSGMVLASEELKTLEDRNKLSPSFGGMMPSKSRESVASEGSNQTSGYQSGYHSDDTDTTVYSSDEAGLLKMVDAAVHADSGTTLRSPPV
notes: Endogenous protein; also called KDR; flk-1; source: endogenous, MAEC and MVEC lysates; endogenous, mouse tissue lysates (thoracic aorta, portal vein, dorsal root ganglia, trigeminal ganglia, cornea); endogenous, fixed MAEC, MVEC and trigeminal ganglion neuronal cells

Data set [1] deals with the molecule itself. Nature of the data set: proximity ligation; Duolink PLA on fixed mouse trigeminal ganglion (TG) neuronal cells; anti-VEGFR1 and anti-VEGFR2 with PLUS and MINUS probes (the same antibody with both probes for homodimers); signal only within 40 nm.
Data set [2] deals with the molecule itself. Nature of the data set: proximity ligation; Duolink PLA on fixed MVEC; anti-VEGFR1 and anti-VEGFR2 with PLUS and MINUS probes (the same antibody with both probes for homodimers); signal only within 40 nm.
Data set [3] addresses B1. Description: proximity ligation; Duolink PLA on fixed mouse trigeminal ganglion (TG) neuronal cells; anti-VEGFR1 and anti-VEGFR2 with PLUS and MINUS probes (the same antibody with both probes for homodimers); signal only within 40 nm. The settings on record: partners not purified.
The target in data set [4] is B1. Nature of the data set: proximity ligation; Duolink PLA on fixed MVEC; anti-VEGFR1 and anti-VEGFR2 with PLUS and MINUS probes (the same antibody with both probes for homodimers); signal only within 40 nm. The settings on record: partners not purified.

B1: the “mean PLA fluorescence intensity per cell” value in data set [1] was found to be 2200; in data set [2] it was 43300.
In the case of B2, the “mean PLA fluorescence intensity per cell” value in data set [3] stood at 268000; in data set [1], 706000; in data set [4], 99600; in data set [2] it was 2.58e+06.

Values taken from article PMC9302817, “VEGF receptor heterodimers and homodimers are differentially expressed in neuronal and endothelial cell types” (PLoS ONE, 2022).
